# Experimental data as given in the RNAGym collection of RNA variant scans (doi:10.7554/elife.80360).
# B1: HDV Ribozyme (parent)
# chain: GGCCGGCAUGGUCCCAGCCUCCUCGCUGGCGCCGGCUGGGCAACAUUCCGAGGGGACCGUCCCCUCGGUAAUGGCGAAUGGGACCCA
# Variants of: B1
# Assay: self-cleavage, relative activity (ratio to wild type); higher = more cleavage; co-transcriptional
row,Variant,self-cleavage
1,C58G A71C,0.802
2,C3G A8G,0.767
3,G11U G40U,0.18
4,C3G U79A,0.491
5,C13U G52A,0.682
6,G50C C66A,0.812
7,C14A U23A,0.575
8,C7A U23G,0.19
9,C57U G76A,1.1
10,C4A A77U,0
11,C24A U65C,0.658
12,G5C A8C,0
13,G28U A45C,0.148
14,C3G G28C,0.107
15,U9G G67A,0.88
16,C14A U47G,0.519
17,C30G C85G,0.0405
18,G2C U46C,0.0475
19,C22G G34A,0.0339
20,G40C C61U,0.192
21,G31U G55C,0.314
22,G55C A70G,0.848
23,C36U C48A,0.623
24,G29A G76U,0.428

row,Variant,self-cleavage
1,C75G U79C,0.113
2,C62U G74C,0.234
3,C33A G74C,0.106
4,C14G C63A,0.755
5,G76A A77C,0.657
6,G76A A77G,1.04
7,U23C G74U,0.554
8,U69C C84U,0.852
9,G10C U20G,0.151
10,C32U C75A,0.0692
11,A8C C13G,0.0692
12,G82C C84U,0.166
13,C44U A56C,1.04
14,C18A C21A,0.125
15,U72C U79G,0.133
16,G29C G74A,0.0733
17,G54A U65C,0.696
18,G40U A51U,0.806
19,C24A G52U,0.769
20,A16U C86G,0.853
21,G5U G34U,0.0426
22,C48A C62U,1.05
23,G2C A45U,0
24,U23A C63U,0.96

row,Variant,self-cleavage
1,G17A C85A,0.727
2,A71G C84A,1.02
3,G34U G38C,0.194
4,A8G C66U,1.14
5,G52C C86A,0.997
6,G31A G40A,0.233
7,C13G C62A,0.0692
8,C18U G39C,0.0405
9,G6U G74U,0.151
10,C33A U37C,0.469
11,C61G C64U,0.755
12,C44A A83G,0.443
13,G50U U79C,0.507
14,C32U G39C,0.122
15,G17A G40C,0.113
16,A43U G73C,0.43
17,C49A C75A,0.156
18,C26G G80C,0.212
19,U12A C58G,0.383
20,C33A G55A,0.159
21,A16C C22G,0.0426
22,C64A C86A,0.942
23,C4A A87C,0.21
24,G54A U60C,1.06

row,Variant,self-cleavage
1,G40A A71G,0.748
2,C32A A87G,0.165
3,G1A C4G,0.123
4,G39U C61U,0.58
5,A51G U60G,0.867
6,A16U A45C,0.462
7,G5U G82U,0.128
8,G52C G73A,0.627
9,G5U G29U,0.0594
10,G55A G76A,1
11,C32A A70G,0.285
12,G25A G34C,0.229
13,G53U C63A,1.2
14,C14G G52A,0.739
15,C33G G54A,0.332
16,C7A C32U,0.227
17,U60G C64U,0.897
18,U47G A51U,1.2
19,G11U U27G,0.353
20,C22G C63U,0.147
21,A42U C85G,0.332
22,G25A G67C,0.277
23,C62A A71C,0.85
24,A42G G74A,0.0396

row,Variant,self-cleavage
1,G31C U60A,0.434
2,C24U C64G,0.779
3,C18A C62A,0.102
4,U12A C48G,0.415
5,A8C U20G,0.175
6,G38C A43C,0.26
7,C14A A45C,0.199
8,G6U C49U,0.485
9,A43G C63A,0.642
10,C44G A87U,0.675
11,G39C C49G,0.219
12,U37A G59U,0.181
13,G1A G40C,0.0437
14,G2C C18U,0.0615
15,G11C U37A,0
16,G59A G73C,0.394
17,G17A C21G,0.0415
18,U12G G52C,0.937
19,C7U G55A,0.724
20,C4U G29A,0
21,A43U G50A,0.47
22,C44U C84A,0.614
23,U47C G50U,0.733
24,C7A C33A,0.0639

row,Variant,self-cleavage
1,G6A U20G,0.262
2,G1U C24G,0.447
3,C64A C75A,0.237
4,G38C G39C,0.0426
5,U46G G81U,0.249
6,A45G G50C,0.989
7,U23A G55U,0.976
8,C48A C63U,1.07
9,G54U U65A,0.513
10,C75A A78G,0.0898
11,C19G C48A,0.115
12,C30G A43G,0
13,G74A C85G,0.601
14,G2U C21A,0.0437
15,G1C C63A,0.201
16,A43G U72C,0.434
17,C33U C86U,0.928
18,C18U A56G,0.719
19,A8U A51G,0.767
20,U20A G34A,0.0992
21,U12C U46G,0.0665
22,G17A A51G,0.782
23,A83C C84G,0.231
24,C26U G31C,0.542

row,Variant,self-cleavage
1,C7U G40U,0.821
2,C24U G55C,0.729
3,G11A U69C,0.324
4,G38A A43U,0.111
5,G6A G73U,0.111
6,U69C A70C,1.23
7,C33A C41A,0.0845
8,U46G A78U,0.0573
9,G39C G40A,0.695
10,U23A G39C,0.204
11,G28C C58U,0.0369
12,G6A A45U,0.486
13,G29A A87G,0.135
14,G29A A87C,0.0602
15,A16G C86A,0.76
16,C21U G31U,0.173
17,A71U A83U,0.426
18,G25A C63U,0.289
19,U12A G55U,0.185
20,G54A A71G,0.959
21,C15A C48A,0.597
22,U46A G73A,0.554
23,C21G G31U,0
24,G40A A70G,0.914

row,Variant,self-cleavage
1,U27A C63G,0.764
2,G29U U46G,0.0386
3,A51C A71C,0.692
4,C4U U37A,0
5,C63U A70G,1.02
6,C33G G38A,0.0308
7,C21U G29U,0.0504
8,C15A C86G,0.748
9,C14A C61A,0.878
10,G17U G31C,0.0361
11,C58A C62A,1.26
12,C7U U79A,0.675
13,C22U C32A,0.117
14,G17A C18U,0.106
15,C24A G55U,0.908
16,A42G G80C,0.364
17,C21G G80A,0.0196
18,C21A C33G,0.0554
19,U60C A78G,0.935
20,A77U C86U,0.729
21,C26A G74C,0.237
22,G10C U79C,0.132
23,G6C U72C,0.0831
24,U47C C61U,0.872

row,Variant,self-cleavage
1,C18G A87U,0.154
2,C3U G29C,0.0601
3,C4U U12A,0.111
4,G73C G74U,0.166
5,G31A A87U,0.442
6,U23G C26G,0.831
7,U47A G67C,1.12
8,C36A G81U,0.0523
9,U46C G81A,0.208
10,C24U G29A,0.0415
11,G50A A77U,0.721
12,G55A A56G,0.882
13,C62G A77C,0.353
14,C19U C62G,0
15,G11C G67C,0.115
16,G35C C62G,0.0594
17,C58U C84G,0.665
18,U23G C44G,0.277
19,U12A G81A,0.0554
20,A43U C85G,0.609
21,G1U C4G,0.634
22,G40A A42G,0.475
23,A8G G59C,0.858
24,A8G G59U,0.914

row,Variant,self-cleavage
1,G2U G11A,0.0304
2,C7U U69A,0.718
3,G39A C58G,0.363
4,C13G C18G,0.138
5,G29A G31C,0.154
6,C3U A70G,0.973
7,A45G C63A,0.872
8,C13U A83G,0.122
9,G6C U47G,0.158
10,G6C G28C,0
11,C15U G53A,0.912
12,C41U G82U,0.261
13,C24U A71C,0.453
14,C13G U72A,0.0536
15,C48A C84U,0.819
16,G35C G80C,0.0992
17,G28C G31U,0.244
18,G1U A83U,0.358
19,C4G C41G,0.0437
20,C4A U27C,0
21,G2U C58A,0.0494
22,U27G A71U,0.598
23,C3G G81U,0.185
24,U27G C84G,0.378

row,Variant,self-cleavage
1,G29A U72G,0.0923
2,C14U U37A,0.151
3,G34A C62A,0.0692
4,G31U C48U,0.619
5,G31U C48G,0.543
6,C4G G74A,0.0639
7,C19A C49U,0.185
8,C19G U60A,0.0959
9,C33A A87C,0.248
10,A45U C61A,0.928
11,G11U G50C,0.359
12,G25U U27G,0.185
13,U37C U47A,0.864
14,G40C G80A,0.0723
15,C4U C15G,0.262
16,U12A U69G,0.795
17,G55U C86G,1.03
18,C14U C41A,1.06
19,U27A G34A,0.256
20,G1U C49G,0.181
21,U23C C36U,0.365
22,G2A G80C,0.0378
23,A16G G39U,0.582
24,C33A G81A,0.0339

row,Variant,self-cleavage
1,C86A A87U,0.9
2,C24U C44G,0.119
3,A71C G73A,0.45
4,G59A G80A,0.305
5,G55A G82A,0.324
6,C19G U69C,0
7,U37C G67U,0.974
8,C7A G53A,0.642
9,C3U C86A,0.923
10,G35C C84A,0.271
11,G5A U47A,0.208
12,G17A U72C,0.141
13,C13A A42U,0.0845
14,G6A G52A,0.831
15,U46G A71U,0.731
16,C22A U37C,0.0723
17,U20G C32G,0.0475
18,C19G G73C,0.0244
19,G10A C75U,0.0992
20,C30U C58U,0.743
21,A16G A43C,0.277
22,C44G C61A,0.724
23,U20C G82C,0.0639
24,G11C U69C,0.317

row,Variant,self-cleavage
1,U20A G74C,0.0396
2,C32G C36G,0.0449
3,G10U G82U,0.248
4,G17C G59C,0.243
5,G6A C26U,0.787
6,C48U A77U,0.356
7,G38U A45G,0.0426
8,C32U U72C,0.532
9,G1A C44A,0.0426
10,G11A G52A,0.38
11,C19G C85G,0.111
12,C33U U72C,0.268
13,U23A U27C,0.575
14,A56U C75U,0.237
15,A77C C86A,0.407
16,C66U U79C,0.571
17,A78G U79A,0.317
18,G2C C3U,0.102
19,U27C C44U,0.19
20,C30U G67A,0.578
21,G68C U72A,0.499
22,A8U G11U,0.201
23,C15A A16C,0.415
24,A16U U69G,1.16

row,Variant,self-cleavage
1,U9A G39C,0.178
2,A45C G81C,0.0489
3,C57A U69G,0.675
4,C3A C85U,0.626
5,G81A A87U,0.565
6,U27A C64G,1.05
7,A16C C48A,0.987
8,U12C G80U,0.18
9,C7G G11A,0.0346
10,C18U G35C,0.119
11,C26G C66A,1.05
12,C30A G52U,0.532
13,G11C C86A,0.489
14,C3G C41U,0.547
15,C64G G76C,0.702
16,G25A U60A,0.295
17,C32A C49G,0.222
18,G5U A45U,0.277
19,G11U G25U,0.0623
20,C75U U79C,0.172
21,G1A G67U,0.297
22,G50A C57G,0.886
